The target of data set [1] is T1, PSMα3 (Staphylococcus aureus, UniProt P0C805).
T1 chain: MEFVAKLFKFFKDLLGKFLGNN
Briefly: EMSA; apparent Kd, Hill fit with n > 1; 40 nM RNA; weaker than Poly(AU). The following applies: tags: none (unlabeled). For orientation: Mobility shift assays separate free from complexed probe on a gel.

Data set [2] has as its target T1, PSMα3. Kind of data set: EMSA; apparent Kd, Hill fit with n > 1; 40 nM RNA. The following applies: tags: none (unlabeled).

With AAAAAAAAAAAAAAAAAAAAAAAAAAAAAA (ssRNA) [Poly(A) RNA (30-nt oligoA)], the Kd with PSMα3 [1] came to 94.5 ± 5.4 µM.

B1: Poly(AU) RNA (30-nt oligoA/oligoU) (dsRNA)
RNA 1: AAAAAAAAAAAAAAAAAAAAAAAAAAAAAA
RNA 2: UUUUUUUUUUUUUUUUUUUUUUUUUUUUUU
On to B1, for which, in the data set with PSMα3 [2], the Kd worked out at 61.8 ± 1.6 µM.

These data come from paper PMC13384500, “RNA selectively modulates activity of virulent amyloid PSMα3 and host-defense LL-37 via phase separation and aggregation dynamics”.
